{"source": "patent CN114751980A", "about": "(XIAMEN BOANG BIOTECHNOLOGY CO LTD, dated 2022)", "target": "T1, 重组N蛋白 (新冠病毒 (SARS-CoV-2), UniProt P0DTC9 1-419)", "T1 construct": "also called 新冠病毒N蛋白", "assay": "indirect ELISA", "data": [{"binder": "单抗阻断剂A3-4 (antibody, V domains shown, also called 新冠病毒检测用单抗阻断剂) VH: EVQLEESGGGLVQPGGSRKLSCIASGIIFHNFGMHWIRQAPEKGLEWVAYISGLSRNISYADTVKGRFTISRDNPKNTLFLQMTSLRSEDTAMYYCSRGWAYDAAFWGQGTLVTVS VL: DVVMTQTPLTLSVTIGQPASFSCKSSRSLLSSNGKIYLNWLLQRPGQSPKRLIYLVSKLDSGVPDRFTGSGSGTDFTLQINRVEAEDLGVYYCVQGTHFPLTFGAGTKLELKR", "values": [{"measurement": "binding result", "value": "no binding"}]}]}
